In patent US20250354133A1, “SIALIDASE FUSION MOLECULES AND RELATED USES” (The Scripps Research Institute, priority 2022, published 2025):

Assays:
[1] = test system: HER2 positive SK-BR-3 human breast cancer cells; assay: BiTE-induced T cell cytotoxicity by LDH release, SK-BR-3 target cells; format: cell-based
Protocol: To evaluate whether desialylation may enhance the susceptibility of tumor cells to BiTE-mediated cytotoxicity by T cells, we first constructed a BiTE molecule from a HER2-targeting scFv 4D5 and a human CD3-targeting scFv (4D5 BiTE). We then treated HER2 positive SK-BR-3 human breast cancer cells with a sialidase derived from Bifidobacterium longum subspecies infantis (B. infantis) to remove cell surface sialic acids. Following this procedure, treated cells were incubated with PBMCs from healthy human donors in the presence of 4D5 BiTE. Staining with FITC-Sambucus nigra agglutinin (SNA) that binds preferentially to sialic acid attached to terminal galactose in an a-2,6 linkage confirmed the success of cell surface desialylation. […] A similar trend was observed when 4D5 BiTE treatment was combined with a sialylation inhibitor, P-3Fax-Neu5Ac (FIG. 1, b). Next, we treated SK-BR-3 and MCF-7 breast cancer cells with 4D5 BiTE and hPBMCs in the presence or absence of B. infantis sialidase, respectively. […] The cytotoxicity enhancement is also observed with a different E: T ratio of 1:1 and the improvement of the BiTE-induced killing was sialidase dose-dependent.
(§1) Cell cytotoxicity measurement by lactate dehydrogenase (LDH) release: T cell cytotoxicity induced by BiTEs and BiTE-sialidase fusion proteins was measured by lactate dehydrogenase (LDH) release using CytoTox 96® Non-Radioactive Cytotoxicity Assay (Promega, G1780). tumor cells and hPBMCs (tumor cell:hPBMC=1:5) per well in […] media were exposed to different treatments and incubated in 96 well plates at 37° C. (unless different ratio was specified elsewhere). After 24 hours of coincubation, […] of media supernatant from each well was transferred to a new flat bottom 96 well plate and LDH release was measured using the supplier's protocol.

T cells [2] = assay: T cell surface activation markers (CD25, CD69, CD107a) by flow cytometry; format: cell-based, human; conditions: with 4D5 BiTEs
Protocol: (§2) Cytokine release and T cell surface activation marker measurement: For T cell cytokine release measurement, as with the cytotoxicity experiment, tumor cells and hPBMCs (tumor cell:hPBMC=1:5) were co-incubated per well in 96 well plates with different treatments in […] media at 37° C. for 24 hours. Then, […] of supernatant from each well was diluted in […] DPBS and used for IFN-γ, IL-2 and TNFα measurement. The ELISA measurement was done by ELISA MAX™ Sets. IFN-γ, IL-2 and TNFα kits (BioLegend) and the experiments were done according to the manufacturer's protocol. The exact concentration was calculated from a standard curve. For the cell surface activation marker measurement, tumor cells and hPBMCs (tumor cell:hPBMC=1:5) were co-incubated per well in 12 well plates with different treatments in 1 mL media at 37° C. for 24 hours. […] Cells were then washed twice with FACS buffer (PBS with 2.5% BSA) before being analyzed using flow cytometry. Data analysis and mean fluorescence intensity calculation were done by Flowjo. For the transcriptome analysis, 1.2 million hPBMCs and 0.1 million MDA-MB-231 cells were incubated together under the treatment of either 4 nM 4D5 BiTE or 4 nM 4D5 BiTE-sialidase (Three replicas for each condition). […]

T cells [3] = assay: T cell cytokine release (IFN-γ, IL-2, TNFα) by ELISA; format: cell-based, human; conditions: MCF7 cells incubated with hPBMCs and BiTE
Protocol: as §2

[4] = test system: MCF-7 breast cancer cells; assay: BiTE-induced T cell cytotoxicity, MCF-7 target cells; format: cell-based, human
Protocol: (§3) To evaluate whether desialylation may enhance the susceptibility of tumor cells to BiTE-mediated cytotoxicity by T cells, we first constructed a BiTE molecule from a HER2-targeting scFv 4D5 and a human CD3-targeting scFv (4D5 BiTE). We then treated HER2 positive SK-BR-3 human breast cancer cells with a sialidase derived from Bifidobacterium longum subspecies infantis (B. infantis) to remove cell surface sialic acids. Following this procedure, treated cells were incubated with PBMCs from healthy human donors in the presence of 4D5 BiTE. Staining with FITC-Sambucus nigra agglutinin (SNA) that binds preferentially to sialic acid attached to terminal galactose in an a-2,6 linkage confirmed the success of cell surface desialylation. […]
as §1, with “(unless different ratio was specified elsewhere).” left out

[5] = test system: immune synapse between T cells and tumor cells; assay: BiTE-induced immune synapse formation, confocal imaging of CD3 and actin; format: cell-based, human
Source text: Formation of the BiTE-induced immunological synapse (IS) between target cells and T cells is the essential mode of action of BiTEs. We hypothesized that the removal of cell-surface sialosides may promote stronger BiTE-induced IS formation between target tumor cells and T cells and thus better tumor cell killing. Accumulation of the TCR-CD3 complex and F-actin at the synapse is a hallmark of a stable and functional cytolytic IS in T cells. To test whether desialylation can promote IS formation, we imaged the IS formed between T cells and sialidase-treated and non-treated SK-BR-3 cells by staining F-actin and CD3. The resulting immunofluorescence was imaged by confocal microscopy. […] To assess the stability of the IS formed, we calculated the relative CD3 fluorescence intensity at the IS and the relative area of the IS.
Staining of human […] and actin for confocal imaging: Briefly, 0.4 million tumors cells were treated with 4 nM 4D5 BiTE or 4 nM 4D5 BiTE with 15 mg/ML sialidase in […] DMEM without the serum for 1 hr at 37° C. After the incubation, all the samples were washed twice using PBS before incubating with 0.4 million hPBMCs in 500 ml PBS for 30 min at 37° C. Then all the cells were transferred in 1 ml PBS to the coverslips in 12 well plates and incubated at 37° C. for 30 min to let cells attach to the coverslip. 1 ml 4% PFA was added to each well and incubated with shaking for 20 min at room temperature (RT) for cell fixing, and then each well was washed twice with ice cold PBS. […] PBST was used for washing for three times before anti-rabbit 488 (Invitrogen, 35553) and anti-mouse 594 ((Invitrogen, A-11005) secondary antibody was diluted and used for staining at RT for 30 min with shaking. Finally, samples were washed three times and each coverslip was transferred to a glass slide with mounting oil. Fingernail oil was used to seal the coverslip. Samples were analyzed on a Zeiss LSM880 with a 63× oil lens (NA 1.4). The relative mean fluorescent intensity (MFI) of […] accumulation and relative contact area of IS was calculated by imageJ.

PSMA-positive PC3 cells = assay: PSMA BiTE-induced T cell cytotoxicity, PC3 target cells; format: cell-based, human; conditions: sialidase and PSMA BiTEs added at the same time
Protocol: as §3
as §1, with “(unless different ratio was specified elsewhere).” left out

[6] = test system: CD19+ (Daudi) and EGFR+ (A549) cells; assay: BiKE-sialidase desialylation selectivity in co-culture; format: cell-based, human; conditions: 10 nM, 1h, serum-free medium, SNA or MALII staining
Protocol: We compared the desialylation activity and selectivity of BiKE-CD19-Sia and BIKE-EGFR-Sia in a co-culture assay comprising CD19+ (Daudi) and EGFR+ (A549) cells, respectively. 1:1 ratio of daudi cells and A549 cells were treated with PBS, 10 nM BiKE-CD19-Sia or 10 nM BiKE-EGFR-Sia for 1h in serum-free medium, followed by staining with SNA-biotin (targets α2,6-linker sialoglycans) or MALII-biotin (targets α2,3-linker sialoglycans) in HBSS buffer for 30 min. Next, the cell mixtures were stained by streptavidin-APC and EGFR-Pc5.5.

[7] = vs 4D5 BiTEs+hPBMCs and sialidase+hPBMCs controls
[8] = sialidase-treated vs untreated SK-BR-3 cells, 4D5 BiTE

recombinant human CTLA-4: a high affinity ligand of CD80 [reference compound]
desialylation-enhanced cytolysis with added CTLA-4 ([1]; high concentrations of CTLA-4 added with sialidase and 4D5 BiTE): no change in the enhanced cytolysis

B1: B. infantis sialidase: sialidase derived from Bifidobacterium longum subspecies infantis, SEQ ID NO: 5 (protein, listed as Bifidobacterium longum)
chain: MTENGMMNTNNTVCGANHDGAMSLAAPGDYGVACYRIPALAEAPNGWILAAFDARPHNCQDAPQANSIVQRISKDGGRSFEPQHVVAAGHDGVDKYGYSDPSYVVDRQTGEVFLFFVKSYDAGFGTSQAGVDPSAREVLQAAVTSSIDNGVTWSEPRIITADITNSESWISRFASSGAGIQLTYGEHAGRLIQQYTIKELDGRYRAVSVFSDDHGATWHAGTPVGDHMDENKVVELSDGRVMLNSRSSDGNGCRYVAISRDGGATYGPVIRETQLPDPENNAQIARAFPDAPEGSAQAKVLLYSSSSPSDRIDGLVRVSIDDGKTWSAGRRFTTGPMAYSVIAALSHKAGGGYGLLYEGDNNNIMYTRISLDWLNGQLNVDGIGGFPLSGEGGC
T cell activation (CD25 and CD69 expression) on addition of sialidase (T cells [2]): significantly enhanced | IFN-γ secretion on addition of sialidase (T cells [3]): significantly enhanced | 4D5 BiTE-induced tumor cell killing by T cells after sialidase treatment ([1]; tumor cells pre-treated with sialidase, hPBMCs, effector:target 5:1, vs 4D5 BiTEs alone): significantly potentiated the 4D5 BiTE-induced tumor cell killing | killing with 4D5 BiTE and hPBMCs in presence of sialidase [1, 7]: stronger killing | BiTE-mediated target cell killing with sialidase treatment ([4]; purified T cells as effectors): better BiTE-mediated target cell killing | killing with 4D5 BiTE and hPBMCs in presence of sialidase [4, 7]: stronger killing | BiTE-induced immune synapse formation ([5]; SKOV-3 cells and T cells, with sialidase treatment): better IS formed | CD3 accumulation at the immune synapse [5, 8]: significantly stronger CD3 accumulation | relative immune synapse area [5, 8]: larger IS area | PSMA BiTE-induced cytotoxicity with sialidase (PSMA-positive PC3 cells): stronger cytotoxicity enhancement

B2: BIKE-EGFR-Sia: anti-EGFR BiKE-sialidase fusion, TAL4S format, SEQ ID NO: 28 (protein)
chain: QVQLQESGPGLVKPSETLSLTCTVSGGSVSSGSYYWSWIRQPPGKGLEWIGYIYYSGSTNYNPSLKSRVTISVDTSKNQFSLKLSSVTAADTAVYYCARNPISIPAFDIWGQGTMVTVSSGGGGSGGGGSGGGGSQPVLTQPPSVSVAPGKTARITCGGNNIGSKSVHWYQQKPGQAPVLVIYYDSDRPSGIPERFSGSNSGNTATLTISRVEAGDEADYYCQVWDTSSDHVLFGGGTKLTVLGGGGSQVQLVQSGAEVKKPGESLKVSCKASGYTFTSYYMHWVRQAPGQGLEWMGIINPSGGSTSYAQKFQGRVTMTRDTSTSTVYMELSSLRSEDTAVYYCARGSAYYYDFADYWGQGTLVTVSSGGGGSGGGGSGGGGSSYVLTQPSSVSVAPGQTATISCGGHNIGSKNVHWYQQRPGQSPVLVIYQDNKRPSGIPERFSGSNSGNTATLTISGTQAMDEADYYCQVWDNYSVLFGGGTKLTVLGGGGSGGGGSGGGGSGGGGSMTENGMMNTNNTVCGANHDGAMSLAAPGDYGVACYRIPALAEAPNGWILAAFDARPHNCQDAPQANSIVQRISKDGGRSFEPQHVVAAGHDGVDKYGYSDPSYVVDRQTGEVFLFFVKSYDAGFGTSQAGVDPSAREVLQAAVTSSIDNGVTWSEPRIITADITNSESWISRFASSGAGIQLTYGEHAGRLIQQYTIKELDGRYRAVSVFSDDHGATWHAGTPVGDHMDENKVVELSDGRVMLNSRSSDGNGCRYVAISRDGGATYGPVIRETQLPDPENNAQIARAFPDAPEGSAQAKVLLYSSSSPSDRIDGLVRVSIDDGKTWSAGRRFTTGPMAYSVIAALSHKAGGGYGLLYEGDNNNIMYTRISLDWLNGQLNVDGIGGFPLSGEGGC
selective desialylation activity [6]: selective desilylation activity
